A short description of this data set: soluble on expression in E. coli; label from the status in PepcDB or PDB records.
As for “MANAFKLFPTRDTNYLEATYVHHDLNVVWLKLSFRVPLETLFLEYRQQGGHTLILSRQVYENILVRDTDFMSVFCNDLQAILEDSPAIERFFVELSPYYWGKEDFDKRMSAWSQSVQLYDWLVTFLDDRQEELKLKLVSLCEFTSLQILSIIRLISSNYLETIKLTFRKNDEQLESNFQEILKTKQWNNAKAAYVKGCCTPIASILHFQKATVQLDILSIDDLRVLKELATKGTLNIFKIRFHSIADSITDNSLIELFGESKHSFLWEWSINGIDNREIECIYSKTYKEFSIFYSEEYQKLGHGVPENNKSEETTLCTSEHSSKVLQNALLMKNILNHLERKDICRLQRTSRKIHESIANLKPDSKIVALEISLVKIECVTVNVFHKMGVKKLIYENVGLSNVDPTAKLITAMERHNQGVFGEEICFAHGRWQLGFSLSAFAVDLIRNLKDQKSEIQELWLDFSLTQARLRERPDKEHIKILVLATRQLLDVISSAGKTLDRQIPVKKLSIQALGHKPLLQILPLLNPVTLKTIEIQKSEVIMAKKPLNLNKVVQLDQWKNAEEVLIKSITAPGQIQHFLHFVVAEVNLESISMGDVLELKNVFQQNSNKLKKFKAFFENSDIDERIYDDQFLGFPYKRPENPSTNLPSVWFVRIPTSTVLHILYYKNRKMISFSRVSNSSVPSDALM”, the “soluble on expression in E. coli” value is listed as “not soluble”.
Consider “MGHHHHHHSHMWTPTEEEKYGVVICSFRGSVPQGLVLEIGETVQILEKCEGWYRGVSTKKPNVKGIFPANYIHLKKAIVSNRGQYETVVPLEDSIVTEVTATLQEWASLWKQLYVKHKVDLFYKLRHVMNELIDLRRQLLSGHLTQDQVREVKRHITVRLDWGNEHLGLDLVPRKDFEVVDSDQISVSDLYKMHL”, for which the “soluble on expression in E. coli” value is “not soluble”.
With “MSLTDSKYISIKGARVNNLKNIDVNIPRNKLVVITGLSGSGKSSLAFDTLYAEGQRRYVESLSSYARQFLGRMSKPECDFIKGIPPAIAIEQKVNSRNPRSTVGTSTEIYEYLRLLYARVGKTYSPVSGEEVKKHSIEDIVNCMLSYPEGTRYTVLTQIYLHDGRTLEQQLEIDRKQGFNRLEVNGEMVRIDEYAAGKEDVVYLLVDRMTAAKSKDAISRLTDSAETAMYEGDGMCMLRFYQPDGTTRLHTFSTKFEADGMTFEEPNDQMFSFNSPIGACPVCEGFGKVIGIDEHLVVPNRSLSVYDGAIVCWRGEKMGEWREELIHNAEKFNFPIFTPYYELTDEQRRVLWEGNQYFHGINDFFKMLEENQYKIQYRVMLARYRGKTLCPKCHGTRLKPEAGYVRVGGKNISELVDLPITELQKFFDSLTLNEHDQAVARRILTEINSRIRFLIDVGLGYLTLNRLSNSLSGGESQRINLATSLGSSLVGSLYILDEPSIGLHSRDTDRLVHVLRQLQQLGNTVVVVEHDEEIIRAADYIIDIGPNAGRLGGQVVYEGDMKDLKKGSNSYTVKYLLGEETIPVPEHRRPWNNYIEIKGARENNLKGVDARFPLNVMTVVTGVSGSGKSTLVRDIFYRALKRELDECSERPGEFVSIEGDLRNLRNVEFVDQNPIGKSSRSNPVTYIKAYDEIRKLWADQPLAKQMGYTAGHFSFNNEGGRCEECKGDGTITVEMQFMADLVLECESCHGKRFKADTLEVKFQDKNIYDILEMTVNQAIEFFTEHGQKKVVKKLIPLQDVGLGYIKLGQSSSTLSGGENQRVKLAYYLSQEKADPTLFIFDEPTTGLHFHDIRKLLDAFDALIRRGHSIVIIEHNMDVIKCADYVIDLGPEGGDKGGNIVATGTPEEVAACAASYTGQFLQEKLNHLEGHHHHHH”, the “soluble on expression in E. coli” value is reported as “soluble”.
“MAETVESSLAKSHIEGSFTNVWKDDKTLDWYANYEGILWKATGVVVITGDETQVYAIWVPVGLAIPENEGGGSEGGGSEGGGSEGGGTKPPEYGDTPIPGYIYINPLDGTYPPGTEQNPANPNPSLEESHPLNTFMFQGNRFRNRQGALTVYTGTVTQGTDPVKTYYQYTPVSSKAMYDAYWNGKFRDVAFHSGFNEDPLVAEYQGQLSYLPQPPVNAPSGHHHHHH”: the “soluble on expression in E. coli” value is listed as “soluble”.
For “MNSAKKEFEISHIFTDVSKLENGNFLLSPEEDHFNVPWDLQLYREDDHLDVYLRCTKLTENDEICAIDTEFELTLKTSNGKQMSRRVKVDFTLENIMIPAWRWSKVVSWETLLKEYLIDDSIIVEAAVMIKAMTGIPRMKLRSFEKSAQEYSDAIIAIGDEKFYVLKKFLAAHSTYFKDLLFGDFDFEQAENSEITLSDINSTDFQCLLEVLYGEPAIDEENIDGILKLAQKYNMPLRFGDVKSS”, the “soluble on expression in E. coli” value is “not soluble”.
Turning to “MGSDKIHHHHHHMPYTIPNNSCVGCDNCRPQCPTGAIKIEDNEYWVDPGLCNNCEGYYSEPQCVIACPTKSPIPWQAKKGRCKVEPRDSTSLDLFSNGKNNPFASAIAIWEACNVLGQRTSLHWETDEDGYLCYSRQVNQGKGAIAFHIQDPFQVNDKATDIAAIEALDIRAACIHLIFAGYATALEQPWEQEFAIDERQIEKYLGMEKRKDLSKAAKLALMKNLVQQACSLIISIDWPQQGRINGFSVTNSRLWHLVDIQHHFQEDNHGCKYLIGLTFKVKAGLWAQYFLNKQACKERTAFYQYGSLPKTLLTTVMSIWQQHEGAVRLMLWLLFKTKMGKEQRITIPTLLRIAYGEEKVALASRQREERKRLLRTFESDLEILNHYGMKPLFDPVTYPPEIQPLWAKLIDLPEDPDEALEFWTNDGGSETRLTDTGPRGKWNLLMNARILAFELPPEWEQQISESEKKKTRTAKAKKKTKATNDLLGEQILQARKNLNLSQRELAKLTGKSQSWIRDIENGRLKAKLEDQLLLRKVLNMASS”, the “soluble on expression in E. coli” value is on record as “not soluble”.
The entry for “MKHHHHHHPMSGLVPRGSAMGEPLASASKFSSIVSNDIDMNFRSFKFWVHNDNLMEVKTRILRHLPVLVYANVPSENDDLVNRFESDISNNDEIVGSSSSTSSVEHGLGARSFDPLINTLYFDNEHFELYNDKLLKLNSAPTLRLRWTGQLSDKPDIFLEKKTLIEDEATGKSEFDLTKLQLKQKFINGFIFEGDKKFKEQTLKKLKESGTAGRDLERLEEDFSEIQNFIIKNELQPVFRTVYTRTAFQIPGDDKIRVTIDSNIVFIKEDSFDRERPIRDPNTWHRTDIDANVANPLKFLRGGEYAKFPYSVMEIKVKSSLDSSMSASSMISNVKLPKKHGQWLNDLTNSHLVKEIPKFSIFVQGVASLYGDDEKLDILPFWLPDLETDIRQ” is “soluble”.
Take “MSETTQGPTHFRLMSKLKAIGPYLREPQSQEGRYYFDCLSVCVDDKKSPEKREFWGWWMDLESIEGGFTAKYHIGKYNKEGKWVSEALPQKVVEEVYFTQSTFHQKLIDTLAEHFKLEVEYHTESFDFA”: the “soluble on expression in E. coli” value is “not soluble”.
“EEPEHSYDNSWGMGYGSSNSRSYGSQNSRSYGSPRTPKLPKHSNKPAIALNVGDRVNHEKYGLGTVTKVDKMAPADSVTIDFGSSGTVRLMLIGSVPMEKL”: the “soluble on expression in E. coli” value was “not soluble”.
The same measure for “MNNFTMPDKKYFLFAARRADDQLILVVPKSGERFLMNEELLRRDYNVQLGDFLHCKINRSKELYDISKTKHTANISTVVNGDEAIIENLRADLVSSDELLLFQSQLFDDIRCWQSDQPIGRYYIKMRLFPTSREMSGRMIHYEVVKITGSVKSIELNKQQGNFQQNIDSGYSAASEKTESSAGFSQSPAAGLPSPQNLIYPAGSKKIVSQQGTQVVGPGCPLVKKEETPANKIMGTGFPKSTKREENVFGSELLQQKKNNEKPGSTVGKGFTTSQTIGEKQRAVVTSIDAKRPGTYYLWNLDSKTEGLLKSTTPLELGHQFAGIFVNQENGKCFCKEYIGEIERVLEGKVNDTNKVNLTVKLLDFQPAGVNRRRASGTAKYIGDVLEGNTEDTKLTIECIGKKVNIERRKFGEKDFVWMVTEIRNCSQYDQKIF”: “not soluble”; for “MENAPLLFQLPDDDTLYQALLARDPAYEGFAFVGVKSTGVFCRLTCAARKPKRENTVFFGSIKGCVEAGFRACLRCRPLERAGVQEPWVQTLLEQLGRDPERRWYEDDLVAQGLDPSTVRRAFKRYFGVTFLEMARLRRMGQGMQQLASGEPVIEAQISAGFDSDSGFRHAFSRLAGQPPSNLRGRELLKVDWLQTPIGVMLAVADAQVLHLLEFFDRPALANELQNLQKSSGSSIGFGRFAPIDQIEAELQRYFAGEAVHFATPLAMSASPFTRTVWQALRAIPLGTTCSYAEVARQVGSPSAVRAVARANAANQISIVIACHRVIGADGSLTGYGGGLEHHHHHH”: “not soluble”.
Turning to “GAAAGVAAWLPFARAAAIGWMPVANCPMPLAPADKNKRQDELIVLNVSGRRFQTWRTTLERYPDTLLGSTEKEFFFNEDTKEYFFDRDPEVFRCVLNFYRTGKLHYPRYECISAYDDELAFYGILPEIIGDCCYEEYKDRKREN”, the “soluble on expression in E. coli” value is “soluble”.
The entry for “MAHHHHHHMEEAKIEAALHICNLLPAHVFEETIKLLSKVDQNLTNNILINKEGPIKIKFDSQQNKHYLGNMFNKEKDSYRSPYSNRYYPEHYPNGYIPSESLRMLEMLYNEMYDRYRKAYYIGGLSSVYLWPNPIEEGFVACFLIKKKENYDPCTSLTWEGTHLIQVSITHARVYYQISTTVNFFIKKKNEMTLSASINKALETPKKVSNVNLVKDKYFHMHNMGKMIEGIENSLRKSIEYIYLPKMNDILNSIRMDDSFASAWHNADRKAAQNLRTISSNIALSRGSVQDELRLKLKGRSFDAGAEYSLRT” is “not soluble”; for “MGSDKIHHHHHHENLYFQGMFRPQDDFTYLMPVHFGGGKFDPETLVTQKATALSLSFETERDLLENYIPEGFELLAPEVQVAFNKFTEINWLHGGQYNLINVAAPVRFHGKKDELDGAYTLVVWENKTAPILGGREQTGIPKIYADIEDLHIVRPHFATTVSYEGNTFLNMDFEATGSITGRDLDALKSQFLTMNTLGWRYIPKVGAPGAELSQFVLYPQGMEVETAEVGKGSLKWTELTPMQSPAQYYIVNSLASLPIKRVTQAVLVEGRAILRAMGARVIE” it is “soluble”; for “MLSATLLNRTVFHSLSPLHSLAHLASDMESSVNKAPSLIAAIVLGLGISACGYFVGDGVKHLKTNNRYVNVRGLSEKEVRADTAELTIAINFKGNVPGELFPKLEEAQKKIVAELNAQGINEKEIILGQWTSKRTDSFYLKDDPTMPRYNADGSVTIKTHNVAAVEKVVAKLNELQVATDGAIAESKVAYRFNGIGALRAEMIAAATKDARNAALQFATDSGSQVGSISDASQGVFQIFASGSDEDDPTAINKTVRVVTTVTYALQD” it is “not soluble”.
On to “MGSSHHHHHHSSGLVPRGSKKKKEMPFPNKKIELGDKLSESIRSFSTITDTEIIIGICRKNIPGWKEINESYIEVKQIFSGLTNQLFVVSIVNESMSLSLKHPRILFRIYGKHVGKFYDSKVELDVFRYLSNINIAPNIIADFPEGRIEEFIDGEPLTTKQLQLTHICVEVAKNMGSLHIINSKRADFPSRFDKEPILFKRIYLWREEAKIQVSKNNFQIDKELYSKILEEIDQLEELIMGGEKFSMERALELKLYSPAFSLVFAHNDLQENNLLQTQNNIRMIDYEYSAINFAGADIANYFCEYIYDYCSEKQPYFKFKYEDYPCEELRKLFISVYLSQTLQEQVMPSQQIVHIMTKAVEVFTLISHITWGLWSIARTPGYQPNSVEFDFTEYANTRFTHYLQKKKELIDQGILPLNSWLFNL”, for which the “soluble on expression in E. coli” value is given as “soluble”.
As to “FTGFFIGPMAEVTIPLVGLGVDGALLFAQRGVKVGDESIRQNGLDIPINLKYTIGLGSALGIYVAAGPDFYFNFSGDKNYGELGRLNKKNAQVGINVGAGVKLLRHLQVGANYNIPLNKTAEWKEADFSYKTKMWQISAAYIF”, the “soluble on expression in E. coli” value was “not soluble”.

Source of the values: the DeepSol protein solubility set.
